Data on 3 molecules can be found in US20170137467A1 (CHROMOTEK, published 2017).

Assay in all cases: positional peptide library pulldown on immobilised Nb, LC-MS of supernatant; signal ratio to control GFP-Nb (1 = not captured, near 0 = captured)
One experiment deals with T1, BC2T A6R.
T1 construct: positional scanning library member
T1 peptide: Ac-PDRKARVSHWQQ-NH2
In short, it runs like this:
(§1)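 Unbound peptide left in supernatant after 1 h pulldown in PBS/0.01% CHAPS measured by reversed-phase LC-MS (8–30% eluent B gradient, 20 min).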

Another experiment has as its target T2, BC2T A5K.
T2 construct: positional scanning library member
T2 peptide: Ac-PDRKKAVSHWQQ-NH2
Put shortly:
as §1

The target of the next experiment is T3, BC2T D2Q.
T3 construct: positional scanning library member
T3 peptide: Ac-PQRKAAVSHWQQ-NH2
Put shortly:
as §1

The target of another experiment is T4, BC2T V7F.
T4 construct: positional scanning library member
T4 peptide: Ac-PDRKAAFSHWQQ-NH2
In short, it runs like this: as §1

For the next experiment, the target named is T5, BC2T D2H.
T5 construct: positional scanning library member
T5 peptide: Ac-PHRKAAVSHWQQ-NH2
Put shortly:
as §1

A further experiment concerns the target T6, BC2T K4T.
T6 construct: positional scanning library member
T6 peptide: Ac-PDRTAAVSHWQQ-NH2
Put shortly:
as §1

The target of another experiment is T7, BC2T D2W.
T7 construct: positional scanning library member
T7 peptide: Ac-PWRKAAVSHWQQ-NH2
Put shortly: as §1

The next experiment concerns the target T8, BC2T V7D.
T8 construct: positional scanning library member
T8 peptide: Ac-PDRKAADSHWQQ-NH2
In short, it runs like this:
as §1

The target of another experiment is T9, BC2T P1F.
T9 construct: positional scanning library member
T9 peptide: Ac-FDRKAAVSHWQQ-NH2
In short, it runs like this: as §1

In a further experiment the target is T10, BC2T K4Q.
T10 construct: positional scanning library member
T10 peptide: Ac-PDRQAAVSHWQQ-NH2
Put shortly: as §1

The target of the next experiment is T11, BC2T D2Y.
T11 construct: positional scanning library member
T11 peptide: Ac-PYRKAAVSHWQQ-NH2
In short, it runs like this: as §1

A further experiment concerns the target T12, BC2T R3W.
T12 construct: positional scanning library member
T12 peptide: Ac-PDWKAAVSHWQQ-NH2
Put shortly: as §1

The target in a further experiment is T13, BC2T A5H.
T13 construct: positional scanning library member
T13 peptide: Ac-PDRKHAVSHWQQ-NH2
In short, it runs like this:
as §1

The target in another experiment is T14, BC2T V7Y.
T14 construct: positional scanning library member
T14 peptide: Ac-PDRKAAYSHWQQ-NH2
In short, it runs like this: as §1

The target of a further experiment is T15, BC2T K4F.
T15 construct: positional scanning library member
T15 peptide: Ac-PDRFAAVSHWQQ-NH2
In short, it runs like this: as §1

For the next experiment, the target named is T16, BC2T A6E.
T16 construct: positional scanning library member
T16 peptide: Ac-PDRKAEVSHWQQ-NH2
In short, it runs like this: as §1

The target of another experiment is T17, BC2T R3K.
T17 construct: positional scanning library member
T17 peptide: Ac-PDKKAAVSHWQQ-NH2
In short, it runs like this: as §1

For another experiment, the target named is T18, BC2T V7H.
T18 construct: positional scanning library member
T18 peptide: Ac-PDRKAAHSHWQQ-NH2
Put shortly:
as §1

The target in another experiment is T19, BC2T A6Y.
T19 construct: positional scanning library member
T19 peptide: Ac-PDRKAYVSHWQQ-NH2
In short, it runs like this:
as §1

Another experiment deals with T20, BC2T H9D.
T20 construct: positional scanning library member
T20 peptide: Ac-PDRKAAVSDWQQ-NH2
Put shortly: as §1

A further experiment addresses T21, BC2T W10D.
T21 construct: positional scanning library member
T21 peptide: Ac-PDRKAAVSHDQQ-NH2
Put shortly:
as §1

Another experiment addresses T22, BC2T Q11P.
T22 construct: positional scanning library member
T22 peptide: Ac-PDRKAAVSHWPQ-NH2
In short, it runs like this:
as §1

B1: BC2-NbR106E (VHH)
VHH: QVQLVESGGGLVQPGGSLTLSCTASGFTLDHYDIGWFRQAPGKEREGVSCINNSDDDTYYADSVKGRFTIFMDNAKDTVYLQMNSLKPEDTAIYYCAEARGCKRGEYEYDFWGQGTQVTVSS
notes: headlock mutant of BC2-Nb; immobilised on beads in this assay
In the case of B1, the ratio with BC2T A6R was found to be 0.7; with BC2T A5K, 0; with BC2T D2Q, 0.1; with BC2T V7F it was 0.2; in the experiment with BC2T D2H it was 0.1; with BC2T K4T it was 0.5. Besides, the ratio with BC2T D2W worked out at 0.1; with BC2T V7D, 0.9; with BC2T P1F, 0.3; with BC2T K4Q it was 0.2; in the experiment with BC2T D2Y, 0.1; with BC2T R3W, 1.1. Also, the ratio with BC2T A5H was 0.2; with BC2T V7Y, 0.2; with BC2T K4F, 0.6; in the experiment with BC2T A6E, 1.1; with BC2T R3K it was 0.3; in the experiment with BC2T V7H it was 0.3. In addition, the ratio with BC2T A6Y was 1.

B2: BC2 nanobody (VHH)
VHH: QVQLVESGGGLVQPGGSLTLSCTASGFTLDHYDIGWFRQAPGKEREGVSCINNSDDDTYYADSVKGRFTIFMDNAKDTVYLQMNSLKPEDTAIYYCAEARGCKRGRYEYDFWGQGTQVTVSS
notes: immobilised on beads in this assay; also called BC2-Nb; BC2 nanotrap (immobilised)
For the molecule B2, the results for the ratio with BC2T H9D and with BC2T W10D were 0.1 and 1, respectively.

B3: BC2-NbR106S (VHH)
VHH: QVQLVESGGGLVQPGGSLTLSCTASGFTLDHYDIGWFRQAPGKEREGVSCINNSDDDTYYADSVKGRFTIFMDNAKDTVYLQMNSLKPEDTAIYYCAEARGCKRGSYEYDFWGQGTQVTVSS
notes: as for B1
For B3, in the experiment with BC2T Q11P, the ratio came to 0.9.
